In PMC7367873, “Dissecting the sequence determinants for dephosphorylation by the catalytic subunits of phosphatases PP1 and PP2A” (Nature Communications, 2020):
Blank lines part the entries; values can stand above or below the molecule they belong to.

Key:
GFP-14-3-3β = GFP-14-3-3β co-IP with LC-MS/MS, untreated GFP-14-3-3β versus GFP control (14-3-3 interactome); format: binding, human; conditions: GFP-14-3-3β co-IP LC-MS/MS; untreated vs GFP; student's t-test; label-free quantification, 3 replicates each
[1] = test system: GFP-14-3-3β and its binding proteins; assay: GFP-14-3-3β co-IP with LC-MS/MS label-free quantification, untreated versus PP1c-treated; design: species or system human; conditions: GFP-14-3-3β co-IP LC-MS/MS; PP1 vs untreated; student's t-test; label-free quantification, 3 replicates each

- Difference (log2), PP1 vs untreated [1]: -0.2879 log2
B1: OSBPL3 (protein, UniProt Q9H4L5 1-887, looked up)
Oxysterol-binding …: MMSDEKNLGVSQKLVSPSRSTSSCSSKQGSRQDSWEVVEGLRGEMNYTQEPPVQKGFLLKKRKWPLKGWHKRFFYLDKGILKYAKSQTDIEREKLHGCIDVGLSVMSVKKSSKCIDLDTEEHIYHLKVKSEEVFDEWVSKLRHHRMYRQNEIAMFPHEVNHFFSGSTITDSSSGVFDSISSRKRSSISKQNLFQTGSNVSFSCGGETRVPLWLQSSEDMEKCSKDLAHCHAYLVEMSQLLQSMDVLHRTYSAPAINAIQGGSFESPKKEKRSHRRWRSRAIGKDAKGTLQVPKPFSGPVRLHSSNPNLSTLDFGEEKNYSDGSETSSEFSKMQEDLCHIAHKVYFTLRSAFNIMSAEREKLKQLMEQDASSSPSAQVIGLKNALSSALAQNTDLKERLRRIHAESLLLDSPAVAKSGDNLAEENSRDENRALVHQLSNESRLSITDSLSEFFDAQEVLLSPSSSENEISDDDSYVSDISDNLSLDNLSNDLDNERQTLGPVLDSGREAKSRRRTCLPAPCPSSSNISLWNILRNNIGKDLSKVAMPVELNEPLNTLQRLCEELEYSELLDKAAQIPSPLERMVYVAAFAISAYASSYYRAGSKPFNPVLGETYECIREDKGFQFFSEQVSHHPPISACHAESRNFVFWQDVRWKNKFWGKSMEIVPIGTTHVTLPVFGDHFEWNKVTSCIHNILSGQRWIEHYGEIVIKNLHDDSCYCKVNFIKAKYWSTNAHEIEGTVFDRSGKAVHRLFGKWHESIYCGGGSSSACVWRANPMPKGYEQYYSFTQFALELNEMDPSSKSLLPPTDTRFRPDQRFLEEGNLEEAEIQKQRIEQLQRERRRVLEENHVEHQPRFFRKSDDDSWVSNGTYLELRKDLGFSKLDHPVLW
- Difference (log2), untreated vs GFP (GFP-14-3-3β): 1.582 log2

- Difference (log2), PP1 vs untreated [1]: -0.3133 log2
B2: HNRNPUL1 (protein, UniProt Q9BUJ2 1-856, looked up)
Heterogeneous nuclear …: MDVRRLKVNELREELQRRGLDTRGLKAELAERLQAALEAEEPDDERELDADDEPGRPGHINEEVETEGGSELEGTAQPPPPGLQPHAEPGGYSGPDGHYAMDNITRQNQFYDTQVIKQENESGYERRPLEMEQQQAYRPEMKTEMKQGAPTSFLPPEASQLKPDRQQFQSRKRPYEENRGRGYFEHREDRRGRSPQPPAEEDEDDFDDTLVAIDTYNCDLHFKVARDRSSGYPLTIEGFAYLWSGARASYGVRRGRVCFEMKINEEISVKHLPSTEPDPHVVRIGWSLDSCSTQLGEEPFSYGYGGTGKKSTNSRFENYGDKFAENDVIGCFADFECGNDVELSFTKNGKWMGIAFRIQKEALGGQALYPHVLVKNCAVEFNFGQRAEPYCSVLPGFTFIQHLPLSERIRGTVGPKSKAECEILMMVGLPAAGKTTWAIKHAASNPSKKYNILGTNAIMDKMRVMGLRRQRNYAGRWDVLIQQATQCLNRLIQIAARKKRNYILDQTNVYGSAQRRKMRPFEGFQRKAIVICPTDEDLKDRTIKRTDEEGKDVPDHAVLEMKANFTLPDVGDFLDEVLFIELQREEADKLVRQYNEEGRKAGPPPEKRFDNRGGGGFRGRGGGGGFQRYENRGPPGGNRGGFQNRGGGSGGGGNYRGGFNRSGGGGYSQNRWGNNNRDNNNSNNRGSYNRAPQQQPPPQQPPPPQPPPQQPPPPPSYSPARNPPGASTYNKNSNIPGSSANTSTPTVSSYSPPQPSYSQPPYNQGGYSQGYTAPPPPPPPPPAYNYGSYGGYNPAPYTPPPPPTAQTYPQPSYNQYQQYAQQWNQYYQNQGQWPPYYGNYDYGSYSGNTQGGTSTQ
- Difference (log2), untreated vs GFP (GFP-14-3-3β): 0.2278 log2

- Difference (log2), PP1 vs untreated [1]: -0.2929 log2
B5: PWP2 (protein, UniProt Q15269 1-919, looked up)
Periodic tryptophan protein 2 …: MKFAYRFSNLLGTVYRRGNLNFTCDGNSVISPVGNRVTVFDLKNNKSDTLPLATRYNVKCVGLSPDGRLAIIVDEGGDALLVSLVCRSVLHHFHFKGSVHSVSFSPDGRKFVVTKGNIAQMYHAPGKKREFNAFVLDKTYFGPYDETTCIDWTDDSRCFVVGSKDMSTWVFGAERWDNLIYYALGGHKDAIVACFFESNSLDLYSLSQDGVLCMWQCDTPPEGLRLKPPAGWKADLLQREEEEEEEEDQEGDRETTIRGKATPAEEEKTGKVKYSRLAKYFFNKEGDFNNLTAAAFHKKSHLLVTGFASGIFHLHELPEFNLIHSLSISDQSIASVAINSSGDWIAFGCSGLGQLLVWEWQSESYVLKQQGHFNSMVALAYSPDGQYIVTGGDDGKVKVWNTLSGFCFVTFTEHSSGVTGVTFTATGYVVVTSSMDGTVRAFDLHRYRNFRTFTSPRPTQFSCVAVDASGEIVSAGAQDSFEIFVWSMQTGRLLDVLSGHEGPISGLCFNPMKSVLASASWDKTVRLWDMFDSWRTKETLALTSDALAVTFRPDGAELAVATLNSQITFWDPENAVQTGSIEGRHDLKTGRKELDKITAKHAAKGKAFTALCYSADGHSILAGGMSKFVCIYHVREQILMKRFEISCNLSLDAMEEFLNRRKMTEFGNLALIDQDAGQEDGVAIPLPGVRKGDMSSRHFKPEIRVTSLRFSPTGRCWAATTTEGLLIYSLDTRVLFDPFELDTSVTPGRVREALRQQDFTRAILMALRLNESKLVQEALEAVPRGEIEVVTSSLPELYVEKVLEFLASSFEVSRHLEFYLLWTHKLLMLHGQKLKSRAGTLLPVIQFLQKSIQRHLDDLSKLCSWNHYNMQYALAVSKQRGTKRSLDPLGSEEEAEASEDDSLHLLGGGGRDSEEEMLA
- Difference (log2), untreated vs GFP (GFP-14-3-3β): 0.9621 log2

Second part, the molecule before the results:

B3: COBL (protein, UniProt O75128 1-1261, looked up)
Protein cordon-bleu: MDAPRASAAKPPTGRKMKARAPPPPGKAATLHVHSDQKPPHDGALGSQQNLVRMKEALRASTMDVTVVLPSGLEKRSVLNGSHAMMDLLVELCLQNHLNPSHHALEIRSSETQQPLSFKPNTLIGTLNVHTVFLKEKVPEEKVKPGPPKVPEKSVRLVVNYLRTQKAVVRVSPEVPLQNILPVICAKCEVSPEHVVLLRDNIAGEELELSKSLNELGIKELYAWDNRRETFRKSSLGNDETDKEKKKFLGFFKVNKRSNSKGCLTTPNSPSMHSRSLTLGPSLSLGSISGVSVKSEMKKRRAPPPPGSGPPVQDKASEKVSLGSQIDLQKKKRRAPAPPPPQPPPPSPLIPNRTEDKEENRKSTMVSLPLGSGSHCSPDGAPQVLSEAEETVSVGSCFASEDTTEDSGVMSSPSDIVSLDSQQDSMKYKDKWATDQEDCSDQDLAGTPDLGPQKSPLWEKNGSENSHLRTEKAVTASNDEEDLLIAGEFRKTLAELDEDLEEMEDSYETDTSSLTSSIHGASNHCPQDAMIPHGDTDAIPVTFIGEVSDDPVDSGLFSNRNNNAGSFDSEGVASRRDSLAPLQAEHSQPHEKAREEVPALHPASHDVGKGIRVALSNISKDGNLMETAPRVTSFASNLHTDNLNAKVKDKVYGCADGERTQATERVNSQPVNEKDSNDKNAALAPTSWHQRGQNPGKSYRLKHGLTTYKIIPPKSEMRCYDRDVSLSTGAIKIDELGNLVSPHATGIRIISLSSSVPEAESQPIGKVREFWRCNSVEKHLGRPSESSARGPPSTPVPTQTQNPESRLQADPKPISPQQKSAHHEGRNPLGEGRNQPPTMGMGHVRVPAAHTTEVTFLKPQRRTSSQYVASAIAKRIGAPKVHADVVRPHGYAEKGYAGKAPVLAAPPVTVKDDRTSSPHSETQGWKDGAQWPCVTPPNNHGEDLAVGAPPRGEVIGPHRKLSTQDRPAAIHRSSCFSLVQSSQRDRVSVGQSCGFSGKQSTSSQEASSASEPRRAPDGTDPPPPHTSDTQACSRELVNGSVRAPGHGEPSHPPGGSGTESHILLEREEKPSVFSTDGNETDSIWPPSIFGPKKKFKPVVQRPVPKDTSLHSALMEAIHSAGGKDRLRKTAEHTGEGRPAKLSYTEAEGERSALLAAIRGHSGTCSLRKVASSASEELQSFRDAALSAQGSESPLLEDLGLLSPPAIPPPPPPPSQALSAPRTASRFSTGTLSNTADARQALMDAIRSGTGAARLRKVPLLV
- Difference (log2), untreated vs GFP (GFP-14-3-3β): -0.6052 log2
- Difference (log2), PP1 vs untreated [1]: -0.2795 log2

B4: HNRNPR (protein, UniProt O43390 2-633, looked up)
Heterogeneous nuclear …: ANQVNGNAVQLKEEEEPMDTSSVTHTEHYKTLIEAGLPQKVAERLDEIFQTGLVAYVDLDERAIDALREFNEEGALSVLQQFKESDLSHVQNKSAFLCGVMKTYRQREKQGSKVQESTKGPDEAKIKALLERTGYTLDVTTGQRKYGGPPPDSVYSGVQPGIGTEVFVGKIPRDLYEDELVPLFEKAGPIWDLRLMMDPLSGQNRGYAFITFCGKEAAQEAVKLCDSYEIRPGKHLGVCISVANNRLFVGSIPKNKTKENILEEFSKVTEGLVDVILYHQPDDKKKNRGFCFLEYEDHKSAAQARRRLMSGKVKVWGNVVTVEWADPVEEPDPEVMAKVKVLFVRNLATTVTEEILEKSFSEFGKLERVKKLKDYAFVHFEDRGAAVKAMDEMNGKEIEGEEIEIVLAKPPDKKRKERQAARQASRSTAYEDYYYHPPPRMPPPIRGRGRGGGRGGYGYPPDYYGYEDYYDDYYGYDYHDYRGGYEDPYYGYDDGYAVRGRGGGRGGRGAPPPPRGRGAPPPRGRAGYSQRGAPLGPPRGSRGGRGGPAQQQRGRGSRGSRGNRGGNVGGKRKADGYNQPDSKRRQTNNQQNWGSQPIAQQPLQQGGDYSGNYGYNNDNQEFYQDTYGQQWK
- Difference (log2), untreated vs GFP (GFP-14-3-3β): 0.8033 log2
- Difference (log2), PP1 vs untreated [1]: -0.2799 log2

B6: ABCF3 (protein, UniProt Q9NUQ8 2-709, looked up)
ATP-binding cassette …: ATCAEILRSEFPEIDGQVFDYVTGVLHSGSADFESVDDLVEAVGELLQEVSGDSKDDAGIRAVCQRMYNTLRLAEPQSQGNSQVLLDAPIQLSKITENYDCGTKLPGLLKREQSSTVNAKKLEKAEARLKAKQEKRSEKDTLKTSNPLVLEEASASQAGSRKESRLESSGKNKSYDVRIENFDVSFGDRVLLAGADVNLAWGRRYGLVGRNGLGKTTLLKMLATRSLRVPAHISLLHVEQEVAGDDTPALQSVLESDSVREDLLRRERELTAQIAAGRAEGSEAAELAEIYAKLEEIEADKAPARASVILAGLGFTPKMQQQPTREFSGGWRMRLALARALFARPDLLLLDEPTNMLDVRAILWLENYLQTWPSTILVVSHDRNFLNAIATDIIHLHSQRLDGYRGDFETFIKSKQERLLNQQREYEAQQQYRQHIQVFIDRFRYNANRASQVQSKLKMLEKLPELKPVDKESEVVMKFPDGFEKFSPPILQLDEVDFYYDPKHVIFSRLSVSADLESRICVVGENGAGKSTMLKLLLGDLAPVRGIRHAHRNLKIGYFSQHHVEQLDLNVSAVELLARKFPGRPEEEYRHQLGRYGISGELAMRPLASLSGGQKSRVAFAQMTMPCPNFYILDEPTNHLDMETIEALGRALNNFRGGVILVSHDERFIRLVCRELWVCEGGGVTRVEGGFDQYRALLQEQFRREGFL
- Difference (log2), untreated vs GFP (GFP-14-3-3β): 1.23 log2
- Difference (log2), PP1 vs untreated [1]: -0.3214 log2
